Each block holds one binder with its values, some of them ahead of it.
Assays:
[1] = molecular target: T1, Rpl5 (uL18) (S. cerevisiae (endogenous in yeast cells)) (UniProt P26321)
T1 sequence: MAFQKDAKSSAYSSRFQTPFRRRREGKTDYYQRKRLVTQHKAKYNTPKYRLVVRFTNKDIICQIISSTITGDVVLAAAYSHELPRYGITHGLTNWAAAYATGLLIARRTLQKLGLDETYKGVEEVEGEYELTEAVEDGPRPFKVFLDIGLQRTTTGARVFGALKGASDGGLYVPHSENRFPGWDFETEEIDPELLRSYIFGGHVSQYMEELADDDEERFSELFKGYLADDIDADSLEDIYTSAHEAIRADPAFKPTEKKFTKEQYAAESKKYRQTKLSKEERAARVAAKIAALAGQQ

[2] = molecular target: Rpl4 (uL4), non-ribosome bound (S. cerevisiae (endogenous in yeast cells)) (UniProt P10664)
Sequence of UniProt P10664 (P10664 whole entry): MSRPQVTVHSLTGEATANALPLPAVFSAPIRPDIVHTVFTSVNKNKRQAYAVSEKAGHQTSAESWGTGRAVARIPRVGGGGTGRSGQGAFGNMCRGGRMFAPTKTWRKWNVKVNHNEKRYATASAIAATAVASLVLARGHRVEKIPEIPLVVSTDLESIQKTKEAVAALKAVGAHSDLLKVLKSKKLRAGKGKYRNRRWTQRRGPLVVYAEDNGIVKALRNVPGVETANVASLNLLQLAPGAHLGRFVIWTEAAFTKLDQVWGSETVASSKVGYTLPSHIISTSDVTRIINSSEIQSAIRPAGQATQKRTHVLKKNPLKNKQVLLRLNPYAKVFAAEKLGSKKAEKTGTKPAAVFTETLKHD

enrichment of the RPL5 mRNA, compared to the non-specific r-protein mRNAs, in the Syo1-FTpA IgG-Sepharose purification from extracts of cycloheximide-treated cells (real-time qRT-PCR) [1]: 150 fold
B1: Syo1-FTpA (natural protein)
chain: MGRSKKRSRASSSRLNPLRKAGSNDNNKDTNVVNKKLQPLLQNLSSVVPNDRSIALSSISVLCEDAHMRQLLLKEKLVPIILNKLLNDSNSDIVVESFGLLRNLSLEEGYDVSIYLWRSDIWTSITSNFGRIVESLSALQAAEQQPQLKPAGKSKIESKRLLFDFADNLLSLVVALSNGSDDILNEILTESKINEIFQVISQLLKYGVEKLPINLFNTTLDLIYDLSSESFEFIDHVSNNELLSQFLNGLSPALHPQANELTKVLIEGIHCQFLDMKITYDQCNKMIHSVCHSINNIDPVQLVNDINNPVEIGPATSKDESSKVITKIKDYNAKRNESMIKLQSIEIAIDLITAIIEIVASKYESPESQEVAIPEELINTLTNFLPHVFMILKDTFTSRILIGWNNLIWLFVSLSLTELSGELLTTLWSYVTQLDSQDDLSIKIGRMGCIWALLKLIFPDGAFESENRALINVQMLNNSGFARGIIEEFQNNNDLELQQKCINVLSTYAMIQGQIDANKEIGQFFIQTLTQLNVRPEILIEMTNSLFQIYGDASYDYNEPIFVRGGFLSILKDQVVPNLRQQFKMVDKNKNPELKERCHDCFTTLDSFIHYKMNENSTNQ

enrichment of the RPL4 mRNA, compared to the non-specific r-protein mRNAs, in the Acl4-TAP IgG-Sepharose purification from extracts of cycloheximide-treated cells (real-time qRT-PCR) [2]: 150 fold
B2: C-terminally TAP-tagged Acl4 (natural protein)
chain: MSELEATIRQAKEALAENNAKKALKILKPFKSSLKKENANNVILNEVFADAYLDNGQVEKAYPILARACELDPEGQVGGPDKFFTMGQIMGGQDGVSIITRGIMNISNTGGEMLTNVQVEKIVGGLLSVIEIWMTDLCMEPNAEEQCEELIQKAMELTEGKSPETWSTLGSIKISQQKFGEAYEAFSQAWNFFELKKQEIGSGINENGDTTQKAGLQSEYVDLLQPLLSLTKMCLEVGAYEVALKVIAAVRDIDEDNIEGYYLEGFTYYLMSKLEIFKLNNPEVSLRPENIYEFNQLIQEVPLDLSHEPISQLIYDSRLALSFALQAGVNADSKDEIVQELLGGANALLQEIGGPLDPSELTQIKKGDLVNENEDLEELDIEEEYSD
